Assay [1] addresses T1, human FcγRIIb extracellular domain with C-terminal His tag (human, UniProt P31994 43-217).
T1 construct: extracellular domain
T1 sequence (looked up): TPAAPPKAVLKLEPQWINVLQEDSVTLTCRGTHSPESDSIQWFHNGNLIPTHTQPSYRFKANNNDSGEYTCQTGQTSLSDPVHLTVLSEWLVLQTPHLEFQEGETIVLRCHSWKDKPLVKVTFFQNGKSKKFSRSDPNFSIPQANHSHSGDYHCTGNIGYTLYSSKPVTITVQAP
Briefly: SPR (Biacore), ratio of KDs. Background: Surface plasmon resonance follows binding to a sensor surface in real time, without labels.

For assay [2], the target named is T1, human FcγRIIb extracellular domain with …. Briefly: SPR (Biacore).
In assay [3] the target is T2, human FcγRIIa type R extracellular domain with C-terminal His tag (human, UniProt P12318 34-217).
T2 construct: extracellular domain; also called FcγRIIaR; FcγRIIa(R)
T2 sequence (looked up): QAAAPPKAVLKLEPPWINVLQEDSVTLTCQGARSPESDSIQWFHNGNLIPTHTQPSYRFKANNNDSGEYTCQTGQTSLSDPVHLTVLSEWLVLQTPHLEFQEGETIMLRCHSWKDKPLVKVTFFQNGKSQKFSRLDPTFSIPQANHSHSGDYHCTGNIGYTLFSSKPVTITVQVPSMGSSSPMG
Briefly: SPR (Biacore).

In assay [4] the target is T3, human FcγRIIa type H extracellular domain with C-terminal His tag (human, UniProt P12318 34-217).
T3 construct: extracellular domain; also called FcγRIIaH; FcγRIIa(H)
T3 sequence (looked up): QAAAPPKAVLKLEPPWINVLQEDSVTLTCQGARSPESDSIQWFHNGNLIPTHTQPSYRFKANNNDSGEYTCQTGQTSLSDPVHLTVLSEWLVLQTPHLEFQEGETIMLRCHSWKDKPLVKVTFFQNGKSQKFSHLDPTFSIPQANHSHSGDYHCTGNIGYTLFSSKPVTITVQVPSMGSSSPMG
Briefly: SPR (Biacore).

For assay [5], the target named is T4, human FcγRIa extracellular domain with C-terminal His tag (human, UniProt P12314 16-292).
T4 construct: extracellular domain
T4 sequence (P12314 16-292): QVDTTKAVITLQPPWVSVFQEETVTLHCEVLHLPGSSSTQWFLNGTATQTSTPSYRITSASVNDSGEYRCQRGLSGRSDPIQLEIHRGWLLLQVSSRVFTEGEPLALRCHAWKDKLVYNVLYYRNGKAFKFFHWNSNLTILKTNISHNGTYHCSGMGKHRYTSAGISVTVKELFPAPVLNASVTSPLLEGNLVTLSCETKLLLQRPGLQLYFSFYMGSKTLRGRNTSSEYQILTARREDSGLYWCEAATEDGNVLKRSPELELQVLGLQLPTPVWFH
Briefly: SPR (Biacore).

The target of assay [6] is T1, human FcγRIIb extracellular domain with …. Briefly: SPR (Biacore), parent IL6R-B3/IL6R-L.
The target of assay [7] is T2, human FcγRIIa type R extracellular …. Briefly: SPR (Biacore), parent IL6R-B3/IL6R-L.

B1: IL6R-BP497/IL6R-L (antibody, human IgG1, kappa)
heavy: QVQLQESGPGLVKPSETLSLTCAVSGHSISHDHAWSWVRQPPGEGLEWIGFISYSGITNYNPSLQGRVTISRDNSKNTLYLQMNSLRAEDTAVYYCARSLARTTAMDYWGEGTLVTVSSASTKGPSVFPLAPSSKSTSGGTAALGCLVKDYFPEPVTVSWNSGALTSGVHTFPAVLQSSGLYSLSSVVTVPSSSLGTQTYICNVNHKPSNTKVDKKVEPKSCDKTHTCPPCPAPDLLGDDSVFLFPPKPKDTLMISRTPEVTCVVIDVAEEDGEVKFNWYVDGVEVHNAKTKPREEQYNSTYRVVSVLTVLHQDWLNGKEYKCKVSNKGLPRPIEKTISKAKGQPREPQVYTLPPSRDELTKNQVSLTCLVKGFYPSDIAVEWESNGQPENNYKTTPPVLDSDGSFFLYSKLTVDKSRWQQGNVFSCSVMHEALHNHYTQESLSLSP
light: not shown
notes: copies: 2 + 2
A word on the Kd: it is the constant that tells how readily two partners part at equilibrium. A low value points to higher affinity. Take B1: the “KD(IIaH)/KD(IIb)” value in assay [1] is 236. In addition, in assay [1], the “KD(IIaR)/KD(IIb)” value was 21. Besides, the Kd in assay [2] was determined as 0.0041 µM; in assay [3], 0.085 µM; in assay [4], 0.96 µM; in assay [5], 0.0021 µM. Also, the “KD(IIb) parent/KD(IIb) altered polypeptide” value in assay [6] is 764. Besides, the “KD(IIaR) parent/KD(IIaR) altered polypeptide” value in assay [7] amounted to 12.9.

B2: IL6R-BP499/IL6R-L (antibody, human IgG1, kappa)
heavy: QVQLQESGPGLVKPSETLSLTCAVSGHSISHDHAWSWVRQPPGEGLEWIGFISYSGITNYNPSLQGRVTISRDNSKNTLYLQMNSLRAEDTAVYYCARSLARTTAMDYWGEGTLVTVSSASTKGPSVFPLAPSSKSTSGGTAALGCLVKDYFPEPVTVSWNSGALTSGVHTFPAVLQSSGLYSLSSVVTVPSSSLGTQTYICNVNHKPSNTKVDKKVEPKSCDKTHTCPPCPAPDLLGDDSVFLFPPKPKDTLMISRTPEVTCVVIDVAEEDGEVKFNWYVDGVEVHNAKTKPREEQDNSTYRVVSVLTVLHQDWLNGKEYKCKVSNKALPRPIEKTISKAKGQPREPQVYTLPPSRDELTKNQVSLTCLVKGFYPSDIAVEWESNGQPENNYKTTPLVLDSDGSFFLYSKLTVDKSRWQQGNVFSCSVMHEALHNHYTQESLSLSP
light: not shown
notes: copies: 2 + 2
For B2, in assay [1], the “KD(IIaH)/KD(IIb)” value came out at 685. Also, the “KD(IIaR)/KD(IIb)” value in assay [1] is 33.8. In addition, the Kd came to 0.0015 µM in assay [2], 0.049 µM in assay [3], 1 µM in assay [4] and 0.0012 µM in assay [5]. Also, the “KD(IIb) parent/KD(IIb) altered polypeptide” value in assay [6] was 2120. Also, the “KD(IIaR) parent/KD(IIaR) altered polypeptide” value in assay [7] is 22.3.

B3: IL6R-BP498/IL6R-L (antibody, human IgG1, kappa)
heavy: QVQLQESGPGLVKPSETLSLTCAVSGHSISHDHAWSWVRQPPGEGLEWIGFISYSGITNYNPSLQGRVTISRDNSKNTLYLQMNSLRAEDTAVYYCARSLARTTAMDYWGEGTLVTVSSASTKGPSVFPLAPSSKSTSGGTAALGCLVKDYFPEPVTVSWNSGALTSGVHTFPAVLQSSGLYSLSSVVTVPSSSLGTQTYICNVNHKPSNTKVDKKVEPKSCDKTHTCPPCPAPDLLGDDSVFLFPPKPKDTLMISRTPEVTCVVIDVAEEDGEVKFNWYVDGVEVHNAKTKPREEQYNSTYRVVSVLTVLHQDWLNGKEYKCKVSNKALPRPIEKTISKAKGQPREPQVYTLPPSRDELTKNQVSLTCLVKGFYPSDIAVEWESNGQPENNYKTTPLVLDSDGSFFLYSKLTVDKSRWQQGNVFSCSVMHEALHNHYTQESLSLSP
light: not shown
notes: copies: 2 + 2
For the molecule B3, in assay [1], the “KD(IIaH)/KD(IIb)” value amounted to 564. Also, in assay [1], the “KD(IIaR)/KD(IIb)” value was found to be 30.8. Besides, the Kd in assay [2] was found to be 0.0017 µM; in assay [3], 0.051 µM; in assay [4], 0.93 µM; in assay [5], 0.0013 µM. Also, in assay [6], the “KD(IIb) parent/KD(IIb) altered polypeptide” value came to 1880. Besides, the “KD(IIaR) parent/KD(IIaR) altered polypeptide” value in assay [7] was 21.7.

B4: IL6R-BP511/IL6R-L (antibody, human IgG1, kappa)
heavy: QVQLQESGPGLVKPSETLSLTCAVSGHSISHDHAWSWVRQPPGEGLEWIGFISYSGITNYNPSLQGRVTISRDNSKNTLYLQMNSLRAEDTAVYYCARSLARTTAMDYWGEGTLVTVSSASTKGPSVFPLAPSSKSTSGGTAALGCLVKDYFPEPVTVSWNSGALTSGVHTFPAVLQSSGLYSLSSVVTVPSSSLGTQTYICNVNHKPSNTKVDKKVEPKSCDKTHTCPPCPAPELLGDDSVFLFPPKPKDTLMISRTPEVTCVVIDVAEEDGPVKFNWYVDGVEVHNAKTKPREEQDNSTYRVVSVLTVLHQDWLNGKEYKCKVSNKALPRPIEKTISKAKGQPREPQVYTLPPSRDELTKNQVSLTCLVKGFYPSDIAVEWESNGQPENNYKTTPPVLDSDGSFFLYSKLTVDKSRWQQGNVFSCSVMHEALHNHYTQESLSLSP
light: not shown
notes: copies: 2 + 2
As for B4, in assay [1], the “KD(IIaH)/KD(IIb)” value came to 1240. In addition, in assay [1], the “KD(IIaR)/KD(IIb)” value is 50.6. For the same molecule, the Kd in assay [2] stood at 0.0035 µM; in assay [3], 0.18 µM; in assay [4] it was 4.3 µM; in assay [5], 0.006 µM. Moreover, the “KD(IIb) parent/KD(IIb) altered polypeptide” value in assay [6] is 891. Besides, in assay [7], the “KD(IIaR) parent/KD(IIaR) altered polypeptide” value turned out to be 6.3.

B5: IL6R-BP502/IL6R-L (antibody, human IgG1, kappa)
heavy: QVQLQESGPGLVKPSETLSLTCAVSGHSISHDHAWSWVRQPPGEGLEWIGFISYSGITNYNPSLQGRVTISRDNSKNTLYLQMNSLRAEDTAVYYCARSLARTTAMDYWGEGTLVTVSSASTKGPSVFPLAPSSKSTSGGTAALGCLVKDYFPEPVTVSWNSGALTSGVHTFPAVLQSSGLYSLSSVVTVPSSSLGTQTYICNVNHKPSNTKVDKKVEPKSCDKTHTCPPCPAPDLLGDDSVFLFPPKPKDTLMISRTPEVTCVVIDVAEEDGEVKFNWYVDGVEVHNAKTKPREEQDNSTYRVVSVLTVLHQDWLNGKEYKCKVSNKGLPRPIEKTISKAKGQPREPQVYTLPPSRDELTKNQVSLTCLVKGFYPSDIAVEWESNGQPENNYKTTPPVLDSDGSFFLYSKLTVDKSRWQQGNVFSCSVMHEALHNHYTQESLSLSP
light: not shown
notes: copies: 2 + 2
As for B5, in assay [1], the “KD(IIaH)/KD(IIb)” value amounted to 352. The “KD(IIaR)/KD(IIb)” value in assay [1] was 29.5. Moreover, the Kd in assay [2] was found to be 0.0037 µM; in assay [3] it was 0.11 µM; in assay [4], 1.3 µM; in assay [5], 0.0021 µM. In assay [6], the “KD(IIb) parent/KD(IIb) altered polypeptide” value is 840. Further, the “KD(IIaR) parent/KD(IIaR) altered polypeptide” value in assay [7] was determined as 10.1.

B6: IL6R-BP503/IL6R-L (antibody, human IgG1, kappa)
heavy: QVQLQESGPGLVKPSETLSLTCAVSGHSISHDHAWSWVRQPPGEGLEWIGFISYSGITNYNPSLQGRVTISRDNSKNTLYLQMNSLRAEDTAVYYCARSLARTTAMDYWGEGTLVTVSSASTKGPSVFPLAPSSKSTSGGTAALGCLVKDYFPEPVTVSWNSGALTSGVHTFPAVLQSSGLYSLSSVVTVPSSSLGTQTYICNVNHKPSNTKVDKKVEPKSCDKTHTCPPCPAPDLLGDDSVFLFPPKPKDTLMISRTPEVTCVVIDVAEEDGEVKFNWYVDGVEVHNAKTKPREEQDNSTYRVVSVLTVLHQDWLNGKEYKCKVSNKGLPRPIEKTISKAKGQPREPQVYTLPPSRDELTKNQVSLTCLVKGFYPSDIAVEWESNGQPENNYKTTPMVLDSDGSFFLYSKLTVDKSRWQQGNVFSCSVMHEALHNHYTQESLSLSP
light: not shown
notes: copies: 2 + 2
For B6, the “KD(IIaH)/KD(IIb)” value in assay [1] came out at 503. Moreover, in assay [1], the “KD(IIaR)/KD(IIb)” value came to 33.2. Besides, the Kd in assay [2] came to 0.0017 µM; in assay [3], 0.057 µM; in assay [4], 0.86 µM; in assay [5] it was 0.0012 µM. In assay [6], the “KD(IIb) parent/KD(IIb) altered polypeptide” value came out at 1810. In addition, the “KD(IIaR) parent/KD(IIaR) altered polypeptide” value in assay [7] was 19.4.

B7: IL6R-BP533/IL6R-L (antibody, human IgG1, kappa)
heavy: QVQLQESGPGLVKPSETLSLTCAVSGHSISHDHAWSWVRQPPGEGLEWIGFISYSGITNYNPSLQGRVTISRDNSKNTLYLQMNSLRAEDTAVYYCARSLARTTAMDYWGEGTLVTVSSASTKGPSVFPLAPSSKSTSGGTAALGCLVKDYFPEPVTVSWNSGALTSGVHTFPAVLQSSGLYSLSSVVTVPSSSLGTQTYICNVNHKPSNTKVDKKVEPKSCDKTHTCPPCPAPDLLGDDSVFLFPPKPKDTLMISRTPEVTCVVIDVGEEDGEVKFNWYVDGVEVHNAKTKPREEQDNSTYRVVSVLTVLHQDWLNGKEYKCKVSNKALPRPIEKTISKAKGQPREPQVYTLPPSRDELTKNQVSLTCLVKGFYPSDIAVEWESNGQPENNYKTTPLVLDSDGSFFLYSKLTVDKSRWQQGNVFSCSVMHEALHNHYTQESLSLSP
light: not shown
notes: copies: 2 + 2
For B7, the “KD(IIaH)/KD(IIb)” value in assay [1] was 634. Moreover, the “KD(IIaR)/KD(IIb)” value in assay [1] was 29.3. The dissociation constant Kd in assay [2] came out at 0.0041 µM; in assay [3], 0.12 µM; in assay [4] it was 2.6 µM; in assay [5] it was 0.0077 µM. For the same molecule, in assay [6], the “KD(IIb) parent/KD(IIb) altered polypeptide” value amounted to 756. Also, the “KD(IIaR) parent/KD(IIaR) altered polypeptide” value in assay [7] amounted to 9.2.
